Experimental data from PMC9482650, “Quantitative fragmentomics allow affinity mapping of interactomes” (Nature Communications, 2022).

Experiments:
Experiment in all cases: holdup assay
Set-up in all cases: key: below the threshold = too weak to quantify, mostly under pKd 3.1 to 4
[1] = molecular target: T1, LIN7B, Q9HAP6
T1 sequence (Q9HAP6 88-185, limits assumed, looked up): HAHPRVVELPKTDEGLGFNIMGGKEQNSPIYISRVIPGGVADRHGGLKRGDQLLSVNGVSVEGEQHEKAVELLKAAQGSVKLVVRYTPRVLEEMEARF

[2] = molecular target: Inadl_9, Q8NI35
Inadl_9, Q8NI35, sequence (Q8NI35 1530-1615): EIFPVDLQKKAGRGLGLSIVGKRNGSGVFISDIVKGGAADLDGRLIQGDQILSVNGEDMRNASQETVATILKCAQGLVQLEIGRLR

[3] = molecular target: IL16_1, Q14005
IL16_1, Q14005, sequence (Q14005 210-306): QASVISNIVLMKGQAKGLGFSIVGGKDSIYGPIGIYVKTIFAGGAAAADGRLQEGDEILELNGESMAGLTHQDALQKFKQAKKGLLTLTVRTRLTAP

[4] = molecular target: T2, PTPN13_1, Q12923
T2 sequence (Q12923 1088-1188, limits assumed, looked up): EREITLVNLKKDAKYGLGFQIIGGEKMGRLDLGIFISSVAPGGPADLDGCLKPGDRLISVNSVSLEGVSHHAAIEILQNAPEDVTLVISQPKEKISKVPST

[5] = molecular target: DLG2_2, Q15700
DLG2_2, Q15700, sequence (Q15700 189-283): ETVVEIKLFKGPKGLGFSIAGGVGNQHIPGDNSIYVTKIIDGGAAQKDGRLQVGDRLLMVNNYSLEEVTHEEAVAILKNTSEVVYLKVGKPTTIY

[6] = molecular target: T3, MPDZ_10, O75970
T3 sequence (O75970 1624-1722, limits assumed, looked up): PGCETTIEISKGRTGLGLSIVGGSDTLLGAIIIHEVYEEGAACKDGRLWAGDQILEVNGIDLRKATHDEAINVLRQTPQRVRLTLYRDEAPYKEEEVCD

[7] = molecular target: LAP2, Q96RT1
LAP2, Q96RT1, sequence (Q96RT1 other isoform, or with tags, fused parts or gaps): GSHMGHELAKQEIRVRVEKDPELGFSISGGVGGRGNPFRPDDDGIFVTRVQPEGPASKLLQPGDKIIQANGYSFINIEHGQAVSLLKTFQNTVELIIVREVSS

[8] = molecular target: Inadl_5, Q8NI35
Inadl_5, Q8NI35, sequence (Q8NI35 673-780): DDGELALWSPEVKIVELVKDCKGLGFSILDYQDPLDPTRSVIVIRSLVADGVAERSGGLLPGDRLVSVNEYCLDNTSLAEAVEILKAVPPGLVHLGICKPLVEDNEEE

[9] = molecular target: T4, PARD3B_1, Q8TEW8
T4 sequence (Q8TEW8 196-299, limits assumed, looked up): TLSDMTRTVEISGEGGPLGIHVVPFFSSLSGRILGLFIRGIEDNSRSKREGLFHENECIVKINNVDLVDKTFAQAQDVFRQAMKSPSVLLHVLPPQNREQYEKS

[10] = molecular target: TJP1_3, Q07157
TJP1_3, Q07157, sequence (Q07157 416-512): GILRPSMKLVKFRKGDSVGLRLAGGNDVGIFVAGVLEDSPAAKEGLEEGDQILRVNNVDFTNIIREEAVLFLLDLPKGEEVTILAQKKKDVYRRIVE

[11] = molecular target: T5, HTRA3, P83110
T5 sequence (P83110 354-453, limits assumed, looked up): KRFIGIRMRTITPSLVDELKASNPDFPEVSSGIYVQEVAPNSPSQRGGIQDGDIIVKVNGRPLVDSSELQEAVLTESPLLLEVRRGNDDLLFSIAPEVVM

[12] = molecular target: DLG4_2, P78352
DLG4_2, P78352, sequence (P78352 155-259): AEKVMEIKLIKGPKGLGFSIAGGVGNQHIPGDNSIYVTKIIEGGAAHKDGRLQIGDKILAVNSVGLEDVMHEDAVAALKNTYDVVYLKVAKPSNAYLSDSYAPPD

[13] = molecular target: Inadl_10, Q8NI35
Inadl_10, Q8NI35, sequence (Q8NI35 1673-1763): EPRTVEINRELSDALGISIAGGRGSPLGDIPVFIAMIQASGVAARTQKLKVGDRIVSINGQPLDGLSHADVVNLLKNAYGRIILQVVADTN

[14] = molecular target: TJP2_1, Q9UDY2
TJP2_1, Q9UDY2, sequence (Q9UDY2 24-128): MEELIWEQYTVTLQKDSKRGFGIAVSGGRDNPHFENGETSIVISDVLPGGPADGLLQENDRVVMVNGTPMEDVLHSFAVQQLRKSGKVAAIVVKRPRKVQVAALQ

[15] = molecular target: T6, SYNJ2BP, P57105
T6 sequence (P57105 8-110, limits assumed, looked up): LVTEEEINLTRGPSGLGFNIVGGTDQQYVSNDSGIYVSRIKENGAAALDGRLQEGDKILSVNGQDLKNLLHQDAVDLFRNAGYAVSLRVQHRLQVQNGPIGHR

[16] = molecular target: NOS1, P29475
NOS1, P29475, sequence (P29475 9-101): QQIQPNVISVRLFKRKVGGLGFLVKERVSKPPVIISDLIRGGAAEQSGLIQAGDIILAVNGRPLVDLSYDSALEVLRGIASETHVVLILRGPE

[17] = molecular target: GORASP2, Q9H8Y8
[18] = molecular target: T7, GRIP1_2, Q9Y3R0
T7 sequence (Q9Y3R0 145-248, limits assumed, looked up): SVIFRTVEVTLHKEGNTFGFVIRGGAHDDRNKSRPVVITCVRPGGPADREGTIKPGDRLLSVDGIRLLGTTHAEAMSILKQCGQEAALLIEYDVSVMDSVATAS

[19] = molecular target: T8, DLG3_2, Q92796
T8 sequence (Q92796 221-321, limits assumed, looked up): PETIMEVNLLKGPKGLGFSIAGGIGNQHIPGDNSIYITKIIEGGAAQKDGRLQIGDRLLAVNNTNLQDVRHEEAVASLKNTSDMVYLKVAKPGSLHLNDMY

[20] = molecular target: T9, DLG3_3, Q92796
T9 sequence (Q92796 374-475, limits assumed, looked up): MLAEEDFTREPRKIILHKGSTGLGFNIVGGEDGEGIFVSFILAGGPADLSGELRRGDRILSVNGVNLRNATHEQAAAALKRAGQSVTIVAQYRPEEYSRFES

[21] = molecular target: T10, DFNB31_2, Q9P202
T10 sequence (Q9P202 274-371, limits assumed, looked up): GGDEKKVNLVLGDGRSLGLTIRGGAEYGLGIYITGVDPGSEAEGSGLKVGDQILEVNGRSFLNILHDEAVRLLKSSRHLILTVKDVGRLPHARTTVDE

[22] = molecular target: NHERF4_4, Q86UT5
NHERF4_4, Q86UT5, sequence (Q86UT5 464-550): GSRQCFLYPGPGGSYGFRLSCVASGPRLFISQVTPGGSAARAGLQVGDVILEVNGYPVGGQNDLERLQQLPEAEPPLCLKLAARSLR

[23] = molecular target: T11, RHPN1, Q8TCX5
T11 sequence (Q8TCX5 508-602, limits assumed, looked up): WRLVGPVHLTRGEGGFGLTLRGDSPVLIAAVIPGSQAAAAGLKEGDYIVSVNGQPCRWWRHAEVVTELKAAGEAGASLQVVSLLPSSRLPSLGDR

[24] = molecular target: HTRA1, Q92743
HTRA1, Q92743, sequence (Q92743 360-477): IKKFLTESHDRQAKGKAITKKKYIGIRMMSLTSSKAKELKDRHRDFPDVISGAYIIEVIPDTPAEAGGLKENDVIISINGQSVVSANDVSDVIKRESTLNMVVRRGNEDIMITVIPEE

[25] = molecular target: T12, GRIP1_4, Q9Y3R0
T12 sequence (Q9Y3R0 467-571, limits assumed, looked up): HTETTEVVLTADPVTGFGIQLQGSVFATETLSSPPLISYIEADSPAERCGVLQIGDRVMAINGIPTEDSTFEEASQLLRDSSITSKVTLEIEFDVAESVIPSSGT

[26] = plain residues with an end cap or a label only (N-terminal biotin on a linker: ado-ado)
[27] = modified: phospho on T at position -2 from the C-terminal residue

B1: ADRA1D, P25100 (peptide)
chain: DYSNLRETDI
**Q.** B1 was tested. Which pKd [1, 26] did it give?
**A.** 3.62

**Q.** What about the pKd [2, 26] of the same binder?
**A.** below the threshold

**Q.** And the pKd [3, 26]?
**A.** 3.59

**Q.** What about the pKd [4, 26] of the same binder?
**A.** below the threshold

**Q.** And the pKd [5, 26]?
**A.** 4.35

**Q.** And the pKd [6, 26]?
**A.** below the threshold

**Q.** What about the pKd [7, 26] of the same binder?
**A.** 3.84

**Q.** And the pKd [8, 26]?
**A.** below the threshold

**Q.** And the pKd [9, 26]?
**A.** below the threshold

**Q.** What about the pKd [10, 26] of the same binder?
**A.** below the threshold

**Q.** What about the pKd [11, 26] of the same binder?
**A.** below the threshold

**Q.** What about the pKd [12, 26] of the same binder?
**A.** 4.54

**Q.** What about the pKd [13, 26] of the same binder?
**A.** below the threshold

**Q.** And the pKd [14, 26]?
**A.** below the threshold

**Q.** What about the pKd [15, 26] of the same binder?
**A.** 4.43

**Q.** What about the pKd [16, 26] of the same binder?
**A.** below the threshold

**Q.** What about the pKd [17, 26] of the same binder?
**A.** below the threshold

**Q.** And the pKd [18, 26]?
**A.** below the threshold

**Q.** What about the pKd [19, 26] of the same binder?
**A.** 4.39

**Q.** And the pKd [20, 26]?
**A.** below the threshold

**Q.** What about the pKd [21, 26] of the same binder?
**A.** below the threshold

**Q.** What about the pKd [22, 26] of the same binder?
**A.** below the threshold

**Q.** And the pKd [23, 26]?
**A.** 4.35

**Q.** What about the pKd [24, 26] of the same binder?
**A.** below the threshold

**Q.** And the pKd [25, 26]?
**A.** below the threshold

B2: HPV33-E6_-2P, P06427 (peptide)
chain: SRSRRRETAL
**Q.** B2 was tested. Which pKd [1, 27] did it give?
**A.** below the threshold

**Q.** What about the pKd [2, 27] of the same binder?
**A.** below the threshold

**Q.** And the pKd [3, 27]?
**A.** below the threshold

**Q.** What about the pKd [4, 27] of the same binder?
**A.** below the threshold

**Q.** What about the pKd [5, 27] of the same binder?
**A.** below the threshold

**Q.** And the pKd [6, 27]?
**A.** below the threshold

**Q.** What about the pKd [7, 27] of the same binder?
**A.** below the threshold

**Q.** What about the pKd [8, 27] of the same binder?
**A.** below the threshold

**Q.** What about the pKd [9, 27] of the same binder?
**A.** below the threshold

**Q.** What about the pKd [10, 27] of the same binder?
**A.** below the threshold

**Q.** What about the pKd [11, 27] of the same binder?
**A.** below the threshold

**Q.** What about the pKd [12, 27] of the same binder?
**A.** below the threshold

**Q.** What about the pKd [13, 27] of the same binder?
**A.** below the threshold

**Q.** What about the pKd [14, 27] of the same binder?
**A.** below the threshold

**Q.** And the pKd [15, 27]?
**A.** below the threshold

**Q.** And the pKd [16, 27]?
**A.** 3.75

**Q.** And the pKd [17, 27]?
**A.** below the threshold

**Q.** What about the pKd [18, 27] of the same binder?
**A.** below the threshold

**Q.** What about the pKd [19, 27] of the same binder?
**A.** below the threshold

**Q.** And the pKd [20, 27]?
**A.** below the threshold

**Q.** And the pKd [21, 27]?
**A.** below the threshold

**Q.** What about the pKd [22, 27] of the same binder?
**A.** below the threshold

**Q.** And the pKd [23, 27]?
**A.** below the threshold

**Q.** And the pKd [24, 27]?
**A.** below the threshold

**Q.** What about the pKd [25, 27] of the same binder?
**A.** below the threshold

B3: SLC17A1, Q14916 (peptide)
chain: WAKEKQHTRL
**Q.** With B3 as the binder, how does the pKd [1, 26] read?
**A.** below the threshold

**Q.** And the pKd [2, 26]?
**A.** below the threshold

**Q.** And the pKd [3, 26]?
**A.** below the threshold

**Q.** And the pKd [4, 26]?
**A.** below the threshold

**Q.** What about the pKd [5, 26] of the same binder?
**A.** 3.82

**Q.** And the pKd [6, 26]?
**A.** below the threshold

**Q.** And the pKd [7, 26]?
**A.** below the threshold

**Q.** What about the pKd [8, 26] of the same binder?
**A.** below the threshold

**Q.** And the pKd [9, 26]?
**A.** 4.31

**Q.** And the pKd [10, 26]?
**A.** below the threshold

**Q.** And the pKd [11, 26]?
**A.** below the threshold

**Q.** And the pKd [12, 26]?
**A.** 4.04

**Q.** And the pKd [13, 26]?
**A.** below the threshold

**Q.** And the pKd [14, 26]?
**A.** 3.82

**Q.** And the pKd [15, 26]?
**A.** below the threshold

**Q.** What about the pKd [16, 26] of the same binder?
**A.** 3.71

**Q.** And the pKd [17, 26]?
**A.** below the threshold

**Q.** And the pKd [18, 26]?
**A.** below the threshold

**Q.** What about the pKd [19, 26] of the same binder?
**A.** below the threshold

**Q.** What about the pKd [20, 26] of the same binder?
**A.** below the threshold

**Q.** What about the pKd [21, 26] of the same binder?
**A.** below the threshold

**Q.** What about the pKd [22, 26] of the same binder?
**A.** below the threshold

**Q.** What about the pKd [23, 26] of the same binder?
**A.** 3.97

**Q.** What about the pKd [24, 26] of the same binder?
**A.** below the threshold

**Q.** What about the pKd [25, 26] of the same binder?
**A.** below the threshold
